Reference: the supplement of paper PMC7125110
± gives the standard error. For some of these results: Variants at the floor of the assay were thinned out.

B1: glmS ribozyme (parent)
chain: AUAAAAGCGCCAGAACUACAGAAAUGUAGUUGACGAGGAGGAGGUUUAUCGAAUUUUCGGCGGAUGCCUCCAAA

Columns and labels:
Settings in all cases: with glucosamine-6-phosphate
glucosamine-6-phosphate [1] = variants of: B1; test: kcat; higher = faster cleavage; RNA array
Method in brief: (§1)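 kcat and KM were obtained from weighted Michaelis–Menten fits across concentrations of kobs values. Those came from one- or two-exponential decay fits to per-tile medians normalised to baseline and to non-cleaving reference variants. The variants were barcoded ribozymes transcribed in situ by E. coli RNA polymerase on sequenced MiSeq chips and tracked through a hybridised Cy3 probe at 37 °C, with 40 μM to 10 mM glucosamine-6-phosphate in HEPES/KCl/Mg(OAc)2 buffer flowed in.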

glucosamine-6-phosphate [2] = variants of: B1; test: KM; higher = weaker cofactor use; RNA array
Method in brief: as §1

glucosamine-6-phosphate [3] = variants of: B1; test: self-cleavage kobs at 40 uM GlcN6P; higher = faster cleavage; RNA array
Method in brief: as §1

glucosamine-6-phosphate [4] = variants of: B1; test: self-cleavage kobs at 640 uM GlcN6P; higher = faster cleavage; RNA array
Method in brief: as §1

glucosamine-6-phosphate [5] = variants of: B1; test: self-cleavage kobs at 2500 uM GlcN6P; higher = faster cleavage; RNA array
Method in brief: as §1

glucosamine-6-phosphate [6] = variants of: B1; test: self-cleavage kobs at 10000 uM GlcN6P; higher = faster cleavage; RNA array
Method in brief: as §1

glucosamine-6-phosphate [7] = variants of: B1; test: self-cleavage kobs at 160 uM GlcN6P; higher = faster cleavage; RNA array
Method in brief: as §1

Variant | kcat (glucosamine-6-phosphate [1]) [s⁻¹] | KM (glucosamine-6-phosphate [2]) [µM] | self-cleavage kobs at 40 uM GlcN6P (glucosamine-6-phosphate [3]) [s⁻¹] | self-cleavage kobs at 640 uM GlcN6P (glucosamine-6-phosphate [4]) [s⁻¹] | self-cleavage kobs at 2500 uM GlcN6P (glucosamine-6-phosphate [5]) [s⁻¹] | self-cleavage kobs at 10000 uM GlcN6P (glucosamine-6-phosphate [6]) [s⁻¹] | self-cleavage kobs at 160 uM GlcN6P (glucosamine-6-phosphate [7]) [s⁻¹]
C16U A53U G66A C67U | 0.00153 ± 0.0004 | 755 ± 320 | 8.2e-05 ± 1.8e-05 | 0.000671 ± 0.00013 | 0.000968 ± 0.00031 | 0.00215 ± 0.00061 | –
G66U C70G | 0.000127 ± 1.1e-05 | 550 ± 180 | – | 5.98e-05 ± 1.4e-05 | 0.000112 ± 1.7e-05 | 0.000117 ± 1.9e-05 | 3.86e-05 ± 1.7e-05
A48G C61A | 1.07e-05 ± 3.1e-06 | – | – | – | – | – | –
U30A U47A | 0.00539 ± 0.0011 | 3150 ± 930 | – | 0.000968 ± 0.00012 | 0.0025 ± 0.00032 | 0.00373 ± 0.00086 | 0.000206 ± 5.9e-05
C16G C50U | < 1e-05 | – | – | – | – | – | < 1e-05
C16U U69G | 6.57e-05 ± 1.1e-05 | – | – | 9.02e-05 ± 2.1e-05 | 8.96e-05 ± 1.1e-05 | 5.34e-05 ± 6.6e-06 | 5.84e-05 ± 1.4e-05
C50U C58G | 1.24e-05 ± 3.2e-06 | – | < 1e-05 | – | – | – | –
A12C A33U | 0.000132 ± 1.7e-05 | 3330 ± 1200 | – | – | 6.22e-05 ± 7.4e-06 | 9.81e-05 ± 6.4e-06 | –
G29C A42G | 0.00279 ± 0.00031 | 1790 ± 300 | 6.95e-05 ± 1e-05 | 0.000724 ± 0.00013 | 0.00144 ± 0.00025 | 0.00253 ± 0.00032 | 0.000209 ± 4e-05
U57C C68G | 1.42e-05 ± 2.7e-06 | – | – | – | – | – | –
A6G G29U | 8.41e-05 ± 9.3e-06 | 3850 ± 1100 | – | – | 3.54e-05 ± 1e-05 | 6.03e-05 ± 9e-06 | –
A42U | 0.00024 ± 2.1e-05 | 1350 ± 270 | < 1e-05 | 7.53e-05 ± 1.4e-06 | 0.000187 ± 3.7e-06 | 0.000203 ± 2.9e-06 | 2.06e-05 ± 1.8e-06
G13A C70G | 3.04e-05 ± 1.3e-05 | – | – | 5.03e-05 ± 1.9e-05 | 5.41e-05 ± 1.5e-05 | – | –
C16A C50U | < 1e-05 | – | < 1e-05 | – | – | – | –
G13U U56C | 0.000107 ± 3.8e-05 | – | < 1e-05 | 9.36e-05 ± 1.9e-05 | 7.63e-05 ± 1.5e-05 | 0.000214 ± 4.4e-05 | –
A14G C50A | 7.1e-05 ± 2e-06 | 1890 ± 220 | – | – | 3.98e-05 ± 9.6e-06 | 5.99e-05 ± 7e-06 | –

Variant | kcat (glucosamine-6-phosphate [1]) [s⁻¹] | KM (glucosamine-6-phosphate [2]) [µM] | self-cleavage kobs at 40 uM GlcN6P (glucosamine-6-phosphate [3]) [s⁻¹] | self-cleavage kobs at 640 uM GlcN6P (glucosamine-6-phosphate [4]) [s⁻¹] | self-cleavage kobs at 2500 uM GlcN6P (glucosamine-6-phosphate [5]) [s⁻¹] | self-cleavage kobs at 10000 uM GlcN6P (glucosamine-6-phosphate [6]) [s⁻¹] | self-cleavage kobs at 160 uM GlcN6P (glucosamine-6-phosphate [7]) [s⁻¹]
A39G G41A | 0.00311 ± 0.00078 | 3870 ± 1400 | 4.23e-05 ± 8.3e-06 | 0.000475 ± 9.1e-05 | 0.00153 ± 0.00033 | 0.00217 ± 0.0003 | 8.83e-05 ± 2.3e-05
C16G C68U | 0.000168 ± 6e-06 | 778 ± 79 | – | 7.49e-05 ± 1.2e-05 | 0.000125 ± 1.6e-05 | 0.00016 ± 2.3e-05 | 3.33e-05 ± 1.5e-05
U47C U69A | 0.000275 ± 6.6e-05 | – | 2.9e-05 ± 1.4e-05 | 5.97e-05 ± 2.2e-05 | 0.000178 ± 5.8e-05 | 0.00023 ± 3.1e-05 | –
U55A U65G | 0.00556 ± 0.0024 | – | 7.69e-05 ± 2.5e-05 | 0.000517 ± 0.0001 | 0.00303 ± 0.001 | 0.00343 ± 0.00072 | 0.000125 ± 4.4e-05
U47G A48U | 0.000199 ± 1.8e-05 | 905 ± 230 | – | 8.89e-05 ± 1.5e-05 | 0.000128 ± 2e-05 | 0.000196 ± 2.4e-05 | 3.01e-05 ± 1.4e-05
A39U C70G | 0.000797 ± 0.00021 | 1500 ± 720 | 4.48e-05 ± 9.1e-06 | 0.000201 ± 3.6e-05 | 0.000522 ± 8.8e-05 | 0.000713 ± 0.0001 | 6.66e-05 ± 2e-05
A6C U54A | 0.000158 ± 2.8e-05 | 6600 ± 2300 | – | – | 4.87e-05 ± 1.5e-05 | 9.38e-05 ± 1.7e-05 | –
G37A C67U | 0.000574 ± 0.0001 | 2310 ± 720 | – | 0.000109 ± 1.5e-05 | 0.00036 ± 4.6e-05 | 0.000449 ± 4.9e-05 | 4.58e-05 ± 1.1e-05
A33U G60C | < 1e-05 | – | < 1e-05 | < 1e-05 | – | < 1e-05 | –
U45G C67G | 0.000915 ± 0.00011 | 1420 ± 340 | 3.25e-05 ± 1.2e-05 | 0.000303 ± 4.8e-05 | 0.000477 ± 0.00011 | 0.000846 ± 0.00011 | 7.93e-05 ± 2.7e-05
U55C G66A | 0.0117 ± 0.003 | 1240 ± 450 | 0.0004 ± 6.8e-05 | 0.0034 ± 0.00061 | 0.0116 ± 0.0017 | 0.00884 ± 0.0018 | 0.00128 ± 0.0002
A48U C67A | 0.000213 ± 8.2e-05 | – | – | 0.00012 ± 1.5e-05 | 0.000105 ± 2.4e-05 | 0.000298 ± 4.3e-05 | –
A14C G29U G37U G38A C70A | 5.57e-05 ± 2e-05 | – | – | – | 6.04e-05 ± 2.4e-05 | – | –
A12C A33C | 0.000196 ± 1.6e-05 | 2860 ± 540 | – | 3.98e-05 ± 9.4e-06 | 8.11e-05 ± 1.8e-05 | 0.000156 ± 1.8e-05 | –
A52G U69A | 5.52e-05 ± 3e-06 | – | – | – | 5.1e-05 ± 1.7e-05 | 5.51e-05 ± 8.5e-06 | –
C16U C68A | 3.77e-05 ± 5.5e-06 | – | – | 4.99e-05 ± 1.5e-05 | 2.73e-05 ± 1.3e-05 | 3.74e-05 ± 7.6e-06 | –
